We go through two molecules from US5702914, “Use of reporter genes for retinoid receptor screening assays having novel retinoid-associated response elements” (The Salk Institute for Biological Studies).

Series [1] deals with T1, RAR alpha:RXR alpha heterodimer (Homo sapiens, UniProt P10276;P19793 P10276:1-462,P19793:1-462). As to the kind of experiment: EMSA; less intense than on DR-5; 74-fold RA induction of TK.Luc(DR2B)2 with both receptors in NT2/D1 cells. As to conditions: tags: rabbit reticulocyte lysate (Promega); from pCMX-hRARalpha and pCMX-hRXRalpha; label: 32P. The protocol:
(§1) Aliquots of mRNA were incubated with rabbit reticulocyte lysate (Promega) for in vitro translation. For gel retardation assay, 5 µl of in vitro translated proteins were preincubated in binding buffer (10 mM Tris[pH8.0], 40 mM KCl, 0.05% Nonidet P-40, 6% glycerol, 1 mM DTT, 5 µg/ml poly[dI.dC]) on ice for 15 minutes. For competition assays, 20 fold molar excess of competitor oligonucleotides was mixed at this step. Oligonucleotides containing DR-5 (RARβ2RARE), HOXB DR-2A (nucleotides 30–43 of SEQ ID NO:1) and HOXB DR-2B (nucleotides 41–54 of SEQ ID NO:2) were used as competitors and probes. Subsequently, ^32P-labelled oligonucleotide probes were added to the reaction mixtures and incubated on ice for 15 minutes. The same oligonucleotides used for the construction of luciferase plasmids were used. Reaction mixtures were resolved by 5% polyacrylamide gel electrophoresis in 0.5×TBE. The dried gels were autoradiographed at −70° C.
The ability of RAR and RXR to form either homo- or heterodimers on the HOXB1 DR-2A and DR-2B response elements was examined using gel retardation assays. The expression plasmids pCMX-hRARα and pCMX-hRXRα were linearized with NheI restriction enzyme. Subsequently, capped mRNA was synthesized in vitro using T7 RNA polymerase (Stratagene) according to the manufacturer's instructions. […]
On the technique in general: Mobility shift assays separate free from complexed probe on a gel.

In series [2] the target is T1, RAR alpha:RXR alpha heterodimer. As to the kind of experiment: EMSA; less intense than on DR-5. To be noted: tags: rabbit reticulocyte lysate (Promega); from pCMX-hRARalpha and pCMX-hRXRalpha; label: 32P. The protocol: as §1, with “Gel retardation assays were carried out according to Kliewer et al. (1992, supra). The plasmids pCMX-hRARα and pCMX-hRXRα (Kliewer et al., 1992, supra) were linearlized and capped mRNA was synthesized in vitro using T7 RNA polymerase (Stratagene) according to manufacturer's instructions. Aliquots” for “Aliquots”
The ability of RAR and RXR to form either homo- or heterodimers on the HOXB1 DR-2A and DR-2B response elements was examined using gel retardation assays. […]

T1 sequence (P10276 whole entry, chain 1 of 2): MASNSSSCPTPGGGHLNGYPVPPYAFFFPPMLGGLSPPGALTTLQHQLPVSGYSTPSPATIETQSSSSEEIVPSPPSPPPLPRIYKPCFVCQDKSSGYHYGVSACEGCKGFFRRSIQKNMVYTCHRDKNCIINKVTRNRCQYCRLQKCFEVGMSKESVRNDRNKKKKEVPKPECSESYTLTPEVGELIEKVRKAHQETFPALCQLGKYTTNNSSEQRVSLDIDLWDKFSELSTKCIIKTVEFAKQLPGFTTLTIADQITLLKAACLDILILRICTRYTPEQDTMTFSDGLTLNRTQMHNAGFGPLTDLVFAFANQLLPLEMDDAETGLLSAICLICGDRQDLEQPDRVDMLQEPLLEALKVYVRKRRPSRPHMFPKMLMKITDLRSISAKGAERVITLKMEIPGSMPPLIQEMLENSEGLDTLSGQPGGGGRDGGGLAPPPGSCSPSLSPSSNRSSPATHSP
T1 sequence (P19793 whole entry, chain 2 of 2): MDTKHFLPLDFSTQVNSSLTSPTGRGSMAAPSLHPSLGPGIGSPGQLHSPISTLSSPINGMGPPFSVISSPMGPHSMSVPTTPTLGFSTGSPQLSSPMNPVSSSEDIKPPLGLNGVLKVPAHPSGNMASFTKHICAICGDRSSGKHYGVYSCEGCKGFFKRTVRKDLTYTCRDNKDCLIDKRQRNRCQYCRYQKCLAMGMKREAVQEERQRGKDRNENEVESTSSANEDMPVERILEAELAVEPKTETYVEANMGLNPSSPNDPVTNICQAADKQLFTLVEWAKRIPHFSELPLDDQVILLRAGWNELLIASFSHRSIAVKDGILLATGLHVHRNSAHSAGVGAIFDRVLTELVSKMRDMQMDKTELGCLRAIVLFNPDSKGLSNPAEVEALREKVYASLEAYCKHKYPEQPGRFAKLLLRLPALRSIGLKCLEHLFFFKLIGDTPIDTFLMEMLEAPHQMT

B1: HOXB1 DR-2B (dsDNA)
DNA 1: CGGGCCTGACCTTTTTACCTCGAAG
DNA 2: CTTCGAGGTAAAAAGGTCAGGCCCG
With B1, the binding result in series [1] is recorded as “binds”.

B2: HOXB1 DR-2A (dsDNA)
DNA 1: TGAACTCTTGCCCT
DNA 2: AGGGCAAGAGTTCA
For B2, the binding result in series [2] is reported as “binds”.
